# In patent publication USRE41461E1, “Purification, composition and specificity of Heparinase I, II, and III from Flavobacterium heparinum” (Massachusetts Institute of Technology, priority 1992, dated 2010):
# “Also recorded” adds a separate entry of the source. Where two headings read alike, the source gives them in different places.
# B1: Heparin lyase II: heparin lyase II (heparinase II, no EC number) purified to homogeneity from Flavobacterium heparinum (protein, UniProt C6XZB6 26-772, looked up)
# Heparin and heparin-sulfate …: QTKADVVWKDVDGVSMPIPPKTHPRLYLREQQVPDLKNRMNDPKLKKVWADMIKMQEDWKPADIPEVKDFRFYFNQKGLTVRVELMALNYLMTKDPKVGREAITSIIDTLETATFKPAGDISRGIGLFMVTGAIVYDWCYDQLKPEEKTRFVKAFVRLAKMLECGYPPVKDKSIVGHASEWMIMRDLLSVGIAIYDEFPEMYNLAAGRFFKEHLVARNWFYPSHNYHQGMSYLNVRFTNDLFALWILDRMGAGNVFNPGQQFILYDAIYKRRPDGQILAGGDVDYSRKKPKYYTMPALLAGSYYKDEYLNYEFLKDPNVEPHCKLFEFLWRDTQLGSRKPDDLPLSRYSGSPFGWMIARTGWGPESVIAEMKVNEYSFLNHQHQDAGAFQIYYKGPLAIDAGSYTGSSGGYNSPHNKNFFKRTIAHNSLLIYDPKETFSSSGYGGSDHTDFAANDGGQRLPGKGWIAPRDLKEMLAGDFRTGKILAQGFGPDNQTPDYTYLKGDITAAYSAKVKEVKRSFLFLNLKDAKVPAAMIVFDKVVASNPDFKKFWLLHSIEQPEIKGNQITIKRTKNGDSGMLVNTALLPDAANSNITSIGGKGKDFWVFGTNYTNDPKPGTDEALERGEWRVEITPKKAAAEDYYLNVIQIADNTQQKLHEVKRIDGDKVVGVQLADRIVTFSKTSETVDRPFGFSVVGKGTFKFVMTDLLPGTWQVLKDGKILYPALSAKGDDGALYFEGTEGTYRFLR
# B2: Heparin lyase III: heparin lyase III (heparitinase EC 4.2.2.8) purified to homogeneity from Flavobacterium heparinum (protein, UniProt Q59289 25-659, looked up)
# Heparin-sulfate lyase: QSSSITRKDFDHINLEYSGLEKVNKAVAAGNYDDAAKALLAYYREKSKAREPDFSNAEKPADIRQPIDKVTREMADKALVHQFQPHKGYGYFDYGKDINWQMWPVKDNEVRWQLHRVKWWQAMALVYHATGDEKYAREWVYQYSDWARKNPLGLSQDNDKFVWRPLEVSDRVQSLPPTFSLFVNSPAFTPAFLMEFLNSYHQQADYLSTHYAEQGNHRLFEAQRNLFAGVSFPEFKDSPRWRQTGISVLNTEIKKQVYADGMQFELSPIYHVAAIDIFLKAYGSAKRVNLEKEFPQSYVQTVENMIMALISISLPDYNTPMFGDSWITDKNFRMAQFASWARVFPANQAIKYFATDGKQGKAPNFLSKALSNAGFYTFRSGWDKNATVMVLKASPPGEFHAQPDNGTFELFIKGRNFTPDAGVFVYSGDEAIMKLRNWYRQTRIHSTLTLDNQNMVITKARQNKWETGNNLDVLTYTNPSYPNLDHQRSVLFINKKYFLVIDRAIGEATGNLGVHWQLKEDSNPVFDKTKNRVYTTYRDGNNLMIQSLNADRTSLNEEEGKVSYVYNKELKRPAFVFEKPKKNAGTQNFVSIVYPYDGQKAPEISIRENKGNDFEKGKLNLTLTINGKQQLVLVP
# How the values were obtained:
# [1] = Temperature stability of lyase activity; type: physicochemical; conditions: for time in which 80% of activity was lost: protein 650 ng/ml
# Experimental: Lyase assay stock solutions were prepared in the appropriate buffer and placed in water baths at the following temperatures: heparin lyase I at 30° C., heparin lyase II at 35° C., and heparin lyase III at both 35° and 40° C. […]
# [2] = Heparin lyase activity assay (change of absorbance at 232 nm), heparan sulfate as substrate; type: biochemical; conditions: for Unit/mg (specific activity): final GPC-HPLC purification step, acting on heparan sulfate; for average number of sites acted at in the heparan sulfate polymer: final level of depolymerization, 24 h; for initial activity in six buffers (Tris-HCl, sodium phosphate, HEPES, MOPS, TES, BTP-HCl): 50 mM buffer at optimum pH; for temperature for maximum activity: 50 mM sodium phosphate at optimum pH, 15-55° C.; for optimum temperature (summary): activity greater at higher temperatures but stability reduced; for Vmax: optimized conditions; for pH optimum for activity: on heparan sulfate; for specific activity: purified lyase, toward heparan sulfate
# Experimental: The spectrophotometer was adjusted to the optimum temperature of the particular lyase being assayed. […] A measured quantity of lyase was added, bringing the final volume to 400 μl and the cuvette was gently mixed. The microcuvette was then immediately returned to the spectrophotometer and the change of absorbance at 232 nm was measured at 10 seconds intervals over 3 min. […] The specific activity was then calculated by dividing the micromoles of product produced per minute by the milligrams of protein in the cuvette. […] G., and Linhardt, R. J. (1989) Carbohydr. Res. 190, 219-233. Protein concentration was measured by the Bradford assay, Bradford, M. M. (1976) Anal. Biochem. 72, 248-254, based on a bovine serum albumin standard curve. […] The activities of each lyase (I acting on heparin, II acting on both heparin and heparan sulfate, and III acting on heparan sulfate) were then determined at different pH values. The buffer giving optimum activity for each heparin lyase was selected by testing buffers with buffering capacity near the pH optima calculated in the previous experiments. These buffers were: Tris-HCl, sodium phosphate, HEPES, MOPS, TES, and BTP-CHl. […] The heparin lyase assay solutions were made by diluting enzyme in 50 mM sodium phosphate buffer adjusted to the appropriate pH as previously described. Heparin lyase activity was determined in each buffer. Activity was assayed both immediately after addition to each buffer and following incubation for 24 h at 37° C. The salt concentration for optimum activity was investigated. Sodium chloride, potassium chloride, and sodium and potassium acetate were used to differentiate between ionic strength and specific ion affects. […] The temperature was adjusted in a temperature-regulated spectrophotometer and equilibrated for 10 min before the assay was started. Michaelis-Menten constants were determined using the optimized conditions. The final absorbance value for total depolymerization was divided by 20 to find a value that represented 5% reaction completion. The purified lyase preparations were diluted so that 5% of total depolymerization would be reached only at the end of a 3-min assay. The reaction velocities at specific molar concentrations for each lyase and their substrates were used for kinetic analysis using EZ-FIT hyperbolic curve-fitting program of […]. (1988) Anal. Biochem. 174, 437-447). Substrate solutions were prepared from 50 mg/ml heparin and 40 mg/ml for heparan sulfate stock solutions. […] The amount of purified lyase used was sufficient for complete depolymerization of heparin or heparan sulfate substrates within 30 min. The initial rate of depolymerization of each polysaccharide was measured, the reaction was then continued for 24 h, and the final level of polysaccharide depolymerization was assessed by measuring the final absorbance at 232 nm and expressed as percent activity.
# [3] = Heparin lyase activity: effect of divalent metals and added salt, substrate specificity (each lyase on its substrates); type: biochemical; conditions: for effect of calcium on activity (increase): 10 mM calcium chloride, 50 mM BTP-HCl; for effect of added salt on activity: increasing salt concentration, 0-500 mM
# Experimental: The spectrophotometer was adjusted to the optimum temperature of the particular lyase being assayed. A 700 μl quartz microcuvette containing 400 μg of substrate in 50 mM sodium phosphate buffer (containing 100 mM sodium chloride for heparin lyase I) was thermally equilibrated. A measured quantity of lyase was added, bringing the final volume to 400 μl and the cuvette was gently mixed. The microcuvette was then immediately returned to the spectrophotometer and the change of absorbance at 232 nm was measured at 10 seconds intervals over 3 min. The activity was measured from the change of absorbance/unit time using an extinction coefficient of 3800 M^−1 for products. The specific activity was then calculated by dividing the micromoles of product produced per minute by the milligrams of protein in the cuvette. The molecular weights used for heparin, heparan sulfate, and the chondroitin sulfates were 14,000, 20,000 and 25,000, respectively, Rice, K. G., and Linhardt, R. J. (1989) Carbohydr. Res. 190, 219-233. Protein concentration was measured by the Bradford assay, Bradford, M. M. (1976) Anal. Biochem. 72, 248-254, based on a bovine serum albumin standard curve.
# BTP-HCl buffer (50 mM) was prepared containing either 10 mM calcium chloride, 10 μM or 1 mM copper (II) chloride, 10 μM and 1 mM mercury (II) chloride, and 1 mM zinc (II) chloride. Each solution was adjusted to the optimum pH for the lyase being tested, and the activity of the heparin lyases was measured in the presence and absence of divalent metals.
# The salt concentration for optimum activity was investigated. Sodium chloride, potassium chloride, and sodium and potassium acetate were used to differentiate between ionic strength and specific ion affects. Added salt concentrations varied between 0 and 500 mM and were prepared in 50 mM sodium phosphate buffer after which the pH was adjusted to each enzyme's optimum and the heparin lyase activity was measured.
# Each heparin lyase was added to a solution of complex polysaccharides (1 mg/ml) under optimized assay conditions, and the reaction was monitored at 232 nm for 30 min. The amount of purified lyase used was sufficient for complete depolymerization of heparin or heparan sulfate substrates within 30 min. The initial rate of depolymerization of each polysaccharide was measured, the reaction was then continued for 24 h, and the final level of polysaccharide depolymerization was assessed by measuring the final absorbance at 232 nm and expressed as percent activity.
# [4] = Stability toward storage, freeze thawing and lyophilization; type: physicochemical
# Experimental: […] […] These lyase solutions were then divided into 3 equal aliquots, and one of each was subjected to either freeze thawing, lyophilization, or retained as a control in an ice bath. The activities of heparin lyases I-III were determined in the presence and absence of excipients after: 1) brief storage at 4° C.; 2) freezing at −70° C. and thawing; and 3) −70° C. freezing, lyophilization, and reconstituting with an equal volume of cold water.
# [5] = heparan sulfate, II: 35° C., pH 6.9, III: 35° C., pH 7.6, value ± standard error, read-out: Km(app)
# [6] = heparan sulfate, value ± standard error
# [7] = with heparan sulfate, read-out: Km (Michelis-Menton constant, summary)
Molecule,Unit/mg (specific activity) [2] [Unit/mg],average number of sites acted at in the heparan sulfate polymer [2] [sites],"initial activity in six buffers (Tris-HCl, sodium phosphate, HEPES, MOPS, TES, BTP-HCl) ([2]; heparan sulfate)",temperature for maximum activity ([2]; heparan sulfate) [°C],"Km [2, 5] [µM]",optimum temperature (summary) ([2]; heparan sulfate) [°C],"Vmax [2, 6] [μmol/min mg protein]",pH optimum for activity [2],specific activity [2] [units/mg],"Km (Michelis-Menton constant, summary) ([2]; with heparan sulfate) [mg/mL]",V(max) (summary) ([2]; with heparan sulfate),"Km [2, 7] [µM]",substrates acted on [3],effect of calcium on activity (increase) [3],effect of added salt on activity [3],also measured
B1,36.5,25,"marked reduction of activity in MOPS, TES, and HEPES",40,11.2 ± 2.18,35,28.6 ± 1.26,6.9,36.5,0.869,46.95,43.4,act on both heparin and heparan sulfate,dramatically reduced,decrease in activity; also recorded: decreases,"activity retained ([1]; 25 h at 35° C., protein 1-2 μg/ml, on both heparin and heparan sulfate): 70%; initial rate on heparan sulfate relative to heparin [2]: 1.7 times; effect of divalent metal ions on activity (all metals tested) ([3]; acting on both heparin and heparan sulfate): inhibition by all of the metals tested except for 10 μM copper; effect of added salt on activity ([3]; listed as heparinase II): not observed; activity retained ([4]; under all storage conditions): greater than 75%"
B2,63.5,20,only slight differences in activity,45,29.4 ± 3.16,35,141 ± 3.88,7.6,63.5,0.780,277.01,110,acts only on heparan sulfate,20%,decrease in activity; also recorded: decreases,"time in which 80% of activity was lost ([1]; 35° C.): 3.5 h; time in which 80% of activity was lost ([1]; 40° C.): 0.5 h; effect of copper on activity ([3]; 10 μM copper (II) chloride): unaffected; effect of mercury on activity ([3]; 10 μM mercury (II) chloride): unaffected; effect of copper on activity ([3]; 1 mM copper (II) chloride): inhibited; effect of mercury on activity ([3]; 1 mM mercury (II) chloride): inhibited; effect of zinc on activity ([3]; 1 mM zinc (II) chloride): inhibited; effect of added salt on activity ([3]; listed as heparinase III): not observed; activity retained ([4]; absence of excipient, stored at 4° C.): retains most of its activity; retention of activity ([4]; addition of 5% lactose): destabilizes; activity lost ([4]; on freeze-thawing or freeze-drying): 70-80%; increase of recovered activity ([4]; presence of BSA): 20-25%"
